# Assay results: the DeepSol protein solubility set
# Assay: soluble on expression in E. coli; label from the status in PepcDB or PDB records
row,Sequence,soluble on expression in E. coli
1,MRIALLVKQARLQQGVRQIDLAERLGITLRTFRRIEAGSADGVSLRDFMLVVWGLGVSERLFQGLRDDESFSVEQLEAADRKRVRLPRNRPEDF,not soluble
2,MRIFVYGSLRQKQGNSHWMTNAQLLGDYRIDNYQLYSLGHYPGAVPGNGAVYGEVYRIDNATLAELDALRTRGGEYARQLIQTPYGSAWMYVYQRPVDGLTLIESGDWLDRNQP,not soluble
3,MRILPQIMAAIVLASPALSQCGGGFSSFVDGLKAEAVSMGHDAALVDRFFQGAAQDAKVLKADRAQGVFQKPFVEFSRRLISQNRLDTGKAMGRKYDAVFDRIEAEYGVSRGVLLAFWAFETDFGGFQGDFNTRNALITLAHDCRRPELFRPQIFAAIELYSHGDFDPARTTGAWAGEIGMVQMLPRDILENGVDGDGDGHVTLKTSAPDALMSGARMLSHLGWRAGEPWLQEVTLPAQMDWSLSGPGKPRSAGEWQAMGVRPRAGDLADLPASLILPQGHKGPAFLAYPNFDVYFEWNQSFVYVLTAAYFGTRLEGGQVYDAGNPAPGLDGAGMKALQQKLQARGHDVGKIDGILGAGTRAAVQAEQARLGLPADAWPTAELLNRL,not soluble
4,MRIPRDTGAAEPGQYRTARTPYAREPMRCLSPAHPCKRVVTMVASQLMKTQIALNWIGALIHMSPSNILTLLPSLSLAKRVSARISKTINATPVLRERVASPRSRDARNTMDTKEFEGGALFATTAGSAANLAELSARFVYGDEVDRWDVDVDDEGDPIELAETRGSTFGRNAKFYFSSSPTIKGASRIDDLFSTSDQRYYYVPCPSCGHMQTLEWERLLYSPDFSTVHYQCAGPDCDVLIEEFHKGDMLARGEWRSHADGDGETVGFHLNALYAPLGWQSWSSLAKQYEKAKKAQDRGDLEPMQVFYNTRLAKVWDSAQEQTKAAVLQARALLEDYVLGTMPTGVLSLVSAVDVQANRLEMMVVGCGEGMERWIVDFQVIMGDPADDRTWLALDEKLKERYRHPCGVSLAILATAVDSGGHHTHEVYQFCRVRRWRNVFAIKGASKPGKPVIAQRPSLVDVTWKGQTERNGAELWMVGTDTAKDWIYNRYHLESGPGALHFPKDLPDDFFAQCVAERKVTRYVKGFKRIEWVKGKAERNEALDLLVYSLAMAHYLGLHRYGEHDW,not soluble
5,MRISNGSGGDNVFTSGRFRRRGAATPLISLDFIVENGQGEILLGQRLNRPAQGYWFVPGGRVCKDETLEAAFARLTQAELGVRLPLAAGTFYGVWQHFYDDNFSGEDFSTHYIVLGFRLRVAESDLRLPDAQHGSYRWLTPEQLLASDNVHENSRAYFSPDAPAVGL,not soluble
6,MRITFIGGGNMAGAIIGGLARQGGHRIHVVEHQQDKLDQLAAGFGCSGSQALPERFAADEVVVLAVKPQQLRELCLALAPVLNGALVVSIAAGIRLDALARWLGSRRIVRVMPNTPAMVGKGVSGLYADAAVSAADRDAAETVMRAAGLTVWLADEAGIDDITCVSGSGPAYVFYFIESMIEAAAKAGFGEDKARELVLATFDGAVELARQSPLPVAELRRNVMSKGGTTERAIARFEAEGVKAAIVAGAMDCRDRSIEMGRELSQELEHHHHHH,soluble
7,MRIWSSEHIFDHEWETVAQAAFRKYPNPLNRSITGIDVVKQTLEAGKILTERIIQSHFSIPSWATKLTGFSGTQYSHEYTVIDPTRKEFSLTTRNLNGSSFLRVDEKLTYTPAHEDPNKTILKQDVIVTITLPAFADYCEKTFLSIYSQNANKGRQGVEWVIDHLKKEYEAISTKVSSEVHEMSEKVLRSFGTTSSSSPKPSTPPPPST,not soluble
8,MRKEVEQLALMGAMPDEADERITAALVDEYADLLGKIVKPVTLDEAHILIKLFPPTALYGIEWTLLHLIESVYSEIKSLEYRELINECNSTEFKKMLVQRLNNSQQKKITNEAG,not soluble
9,MRKGGKGYFLTIRRDYVTVSYYLKYVKDIPLEFREIIDIFNNHKFEQYTQEQINKYTYTCNVRKIEDIDKYDEKNPTKFHEYTRGEACRCQTYNYFKDDEFIKRAKLKCIYYNMLFTESATVYSRHCPIIDLMHFAVYDIEYPPIFNTIVNITIEEYYYNDVSSVLNNKSDLVTKEKKYQLNDTITEIRDDYFDLWLFLKGETHGKRTLVNLSNDYIVIPSSPINNRDVIASDITRNCGLSQNSPLLKGCNYSSICNIMHPCLRKAMMLPKYMFDLSGKTCGKLGVSLNT,not soluble
10,MRKIKIGLALGSGAARGWSHIGVINALKKVGIEIDIVAGCSIGSLVGAAYACDRLSALEDWVTSFSYWDVLRLMDLSWQRGGLLRGERVFNQYREIMPETEIENCSRRFAAVATNLSTGRELWFTEGDLHLAIRASCSIPGLMAPVAHNGYWLVDGAVVNPIPISLTRALGADIVIAVDLQHDAHLMQQDLLSFNVSEENSENGDSLPWHARLKERLGSITTRRAVTAPTATEIMTTSIQVLENRLKRNRMAGDPPDILIQPVCPQISTLDFHRAHAAIAAGQLAVERKMDELLPLVRTNI,not soluble
11,MRKILVVGAGQSGLQLALGLQSHGYEVTLMSNRTADEIRTGRVMSTQCMFHTALQHERDLQLNFWESQAPKIEGLGVSVAAPGSFDPGPSQRAIDWLGHLDGFAQSVDQRVKMAGWMETFAQRGGQLVIHGAAVGDLDYFSRAYDLVLVSAGKGELVQMFGRDAERSPYSEPQRALAVAYVHGMGPRPEHPETEAVRCNLVPGVGEMFIMPTFTTSGRADILFWEGIPGGPLDAFKDVKDPAEHLSLTLELMEKFLPWEYARATKVELTDAGGTLAGRYAPTVRNPVGRLPGGGAVLGVADVVVANDPITGQGSNSASKCAASYLASIIEHGDQEFDETWMRQTFDRYWETAQHVTKWTNTMLAPPPEHILNLFGAATQLQPIADRFANGFNDPSDFENFFYDPAKTEGYLAEVSGAAGALEHHHHHH,not soluble
12,MRKKEDKYDFRALGLAIKEARKKQGLTREQVGAMIEIDPRYLTNIENKGQHPSLQVLYDLVSLLNVSVDEFFLPASSQVKSTKRRQLENKIDNFTDADLVIMESVADGIVKSKEVGEMAGENLYFQ,soluble
13,MRKKPLTIFSDGTLTRRENTLYFESAKGRKPLAIEGIYDIYIYGHVNITSQALHYIAQKGILIHFFNHYGYYDGTFYPRETLLSGDLIIRQAEHYLNKEKRLFLAKSFVTGGTKNMERNLKNWGIKAKLSDYLDELNDARKITEIMNVEARIRQEYYAKWDENLPEEFKIVKRTRRPPKNEMNALISFLNSRLYATIITEIYNTQLAPTISYLHEPSERRFSLSLDLSEIFKPIIADRVANRLVKKGSLKKEHFREDLNGVLLTEEGMKIVTKAYNEELQKSVKHPKIGSNVTRQRLIRLEAYKLIKHLVGVEEYKPLVAWF,soluble
14,MRKPKITVIGGGTGIPVILNSLRHEEVDITAIVTVADDGGSSGAIRHVMQLTPPGDLRNVLVAMSDMPKFYERIFQYRFNAEDGALAGHPLGNLIIAGISEMQGSTYNAMQILSKFFHTTGKIYPSSEKALTLHAVFQDGQEVVGESQIAKHKGMIDHVYVANSYDDAKPTASRKVVDAIMESDMIVLGPGSLFTSILPNLVIDEIGKALCETEAEVAYVCNIMTQYGETEHFTDADHVRVLNRHLGQNFIDTVLVNVEKVPQDYMNSNQFDEYLIQVEHDFAGLQEQVPRVVSSNFLCLENGGAFHNGKSVVDELMNLIKVKELLEHHHHHH,not soluble
15,MRLATKDLAEAIRKGQVRKSSFNTEQLRAIEKGESKIPDYTWHHHQDTGRMQLIREGLHHDTGHIGWEAMNKGR,not soluble
16,MRLNHNSYEIFDFMRSRSAIGVLSKIIITIPPINLRMIIGVMGPEGSYSERAAKLWARKNGLRGAEFHYFADIEDAFLAAVGGKTDISVVPVENSIEGSVGVTLDLLLENEAVIIGEIVVKIEHCLLSKGEPEKIRVILSHPQGLAQCRHFLKTHFPEAELRSTGSTSHAARLAGEFEEMAAIASPEAAERYGLKILLSNVQDRKENHTRFIVVRGGEKVLSGKIKGKADSGEKLNTVFGRNAEHKLCSETETGTENSSSYAFKTSLIVYLEKDRPGALYEPLGFFAKRGINLTKIESRPSKKELGDYYFYIDLEGNISDVLIKDALEDIKSKASKKSRSSTLKVLGSYPAFKK,not soluble
